Consider 1 substance from article PMC3072391.

Like-named read-outs stand apart in the source and are kept apart here.

For assay [1], the target named is NS5BΔ21-5a fused to cyan or citrine fluorescent protein (hepatitis C virus genotype 5a (patient isolate)). The assay can be described thus: FRET or BRET; in vitro; purified NS5BΔ21-cyan and NS5BΔ21-citrine of the same genotype mixed equimolar, 50 nM each; 10 mM NaCl and 4.5 mM Mg(CH3COO)2; excitation 432 nm, FRET ratio = emission 530 nm/478 nm, normalised against NS5BΔ21-1b; twelve independent experiments.

Assay [2] shares this target. The assay is described as above. This is another data set of the same source.

As for “NS5BΔ21-5a fused to cyan or citrine fluorescent protein (enzyme)”, the FRET ratio relative to NS5BΔ21-1b is less than 50% in assay [1] and 40% in assay [2].
